Assay results from patent US20180265864, “Genome Engineering Methods Using a Cytosine-Specific CAS9” (Florida State University Research Foundation, Inc., published 2018).

T1: AceCas9 (in E. coli) (Acidothermus cellulolyticus 11B) (UniProt A0LWB3)
T1 sequence: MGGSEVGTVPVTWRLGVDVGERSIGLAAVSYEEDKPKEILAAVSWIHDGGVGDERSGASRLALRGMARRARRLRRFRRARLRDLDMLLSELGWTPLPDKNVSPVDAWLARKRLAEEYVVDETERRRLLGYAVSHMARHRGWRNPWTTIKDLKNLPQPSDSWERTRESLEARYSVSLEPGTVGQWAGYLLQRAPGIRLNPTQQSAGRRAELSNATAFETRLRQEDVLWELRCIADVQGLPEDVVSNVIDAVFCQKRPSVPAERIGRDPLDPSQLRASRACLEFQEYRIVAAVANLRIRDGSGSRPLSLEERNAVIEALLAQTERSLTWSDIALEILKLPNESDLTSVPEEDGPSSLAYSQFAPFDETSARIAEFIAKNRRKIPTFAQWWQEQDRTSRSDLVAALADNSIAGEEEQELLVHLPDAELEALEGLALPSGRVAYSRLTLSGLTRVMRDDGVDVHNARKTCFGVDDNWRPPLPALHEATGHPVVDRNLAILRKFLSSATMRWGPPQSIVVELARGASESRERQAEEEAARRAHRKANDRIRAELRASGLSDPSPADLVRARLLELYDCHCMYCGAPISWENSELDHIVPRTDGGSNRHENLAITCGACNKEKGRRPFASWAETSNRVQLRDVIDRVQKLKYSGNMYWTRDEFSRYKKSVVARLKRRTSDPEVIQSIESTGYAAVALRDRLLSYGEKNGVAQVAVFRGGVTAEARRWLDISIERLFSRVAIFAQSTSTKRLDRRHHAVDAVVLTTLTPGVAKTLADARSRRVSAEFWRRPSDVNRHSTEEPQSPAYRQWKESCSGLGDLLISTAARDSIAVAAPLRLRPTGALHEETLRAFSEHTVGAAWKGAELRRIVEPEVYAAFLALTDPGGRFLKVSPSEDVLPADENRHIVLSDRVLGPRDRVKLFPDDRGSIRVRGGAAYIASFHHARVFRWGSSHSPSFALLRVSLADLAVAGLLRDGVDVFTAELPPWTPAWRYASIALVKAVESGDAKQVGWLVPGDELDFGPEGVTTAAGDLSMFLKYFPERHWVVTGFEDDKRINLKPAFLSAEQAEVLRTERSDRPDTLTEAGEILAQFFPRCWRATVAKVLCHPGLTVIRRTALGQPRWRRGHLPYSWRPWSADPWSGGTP

T2: AceCas9 (Type II-C Cas9) (Acidothermus cellulolyticus 11B, UniProt A0LWB3 A0LWB3:1-1138)
T2 sequence: T1 sequence

B1: sgRNA 24-nt spacer (template bottom strand; RNA is reverse complement without promoter) ; pUC19 WT target, BamHI-linearized (ssRNA ; dsDNA)
RNA: GGUAGGAUGGCAAGAUCCUGGUAUGCUGGGGAGCCUGAAAAGGCUACCUAGCAAGACCCCUUCGUGGGGUCGCAUUCUUCACCCCCUCGCAGCAGCGAGGGGGUUC
DNA 1: GGTAGGATGGCAAGATCCTGGTATACACC
DNA 2: GGTGTATACCAGGATCTTGCCATCCTACC

Experiments:
[1] = target: T1, AceCas9 (in E. coli) (Acidothermus cellulolyticus 11B); experiment: cell_activity
AceCas9 (Type II-C Cas9) = target: T2, AceCas9 (Type II-C Cas9); experiment: cleavage_in_vitro; 50 C; settings: tags: C-terminal His6 (pET28b, E. coli Rosetta DE3); linear plasmid

Molecule	activity ([1]; E. coli ccdB selection) [% survival]	further results
sgRNA 22-nt spacer ; ccdB plasmid PAMWT	< 0.01	–
sgRNA 26-nt spacer ; ccdB plasmid PAMC(4,5)T	–	activity ([1]; [28,29], NNNTT PAM): < 0.001 % survival
sgRNA 26-nt spacer ; ccdB plasmid PAMWT	13.6	–
B1	–	activity (AceCas9 (Type II-C Cas9)): 0.53 min⁻¹
